Laboratory results as given in the supplement of paper PMC10724198.
± gives the standard deviation of the averaged measurements.

Assays:
Saccharomyces cerevisiae [1] = assay: protein stability index of tFT-peptide fusion (C-terminal peptide) (PSI (0-1 scale)); higher = more stable (slower turnover); settings: genetic background: wild type; temperature: 30 C
Saccharomyces cerevisiae [2] = assay: as above
Method: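 MPS profiling in S. cerevisiae of the tFT-X12 degron library: putative degron peptides plus stable controls, 12 aa, fused to the C-terminus of a sfGFP-mCherry timer. Cells are FACS-sorted into 8 mCherry/sfGFP bins and deep-sequenced. PSI runs from 0 (unstable) to 1 (stable). Backgrounds are wild type, das1Δ and doa10Δ at 30 °C, and wild type, das1Δ, cdc34-1 and cdc53-1 at 37 °C; 2-3 technical replicates each.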

[3] = genetic background: cdc34-1, temperature: 37 C
[4] = genetic background: cdc53-1, temperature: 37 C
[5] = genetic background: das1 deletion, temperature: 30 C
[6] = genetic background: das1 deletion, temperature: 37 C
[7] = genetic background: doa10 deletion, temperature: 30 C
[8] = genetic background: wild type, temperature: 30 C
[9] = genetic background: wild type, temperature: 37 C
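Further: PSI is a weighted mean of sequencing reads over stability bins, variants kept only with over 10 reads, mCherry proximal and sfGFP distal, peptide attached via GGGS linker.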

Sequence | protein stability index (Saccharomyces cerevisiae [1]) | protein stability index (Saccharomyces cerevisiae [2]; [3]) | protein stability index (Saccharomyces cerevisiae [2]; [4]) | protein stability index (Saccharomyces cerevisiae [2]; [5]) | protein stability index (Saccharomyces cerevisiae [2]; [6]) | protein stability index (Saccharomyces cerevisiae [2]; [7]) | protein stability index (Saccharomyces cerevisiae [2]; [8]) | protein stability index (Saccharomyces cerevisiae [2]; [9])
CHFLLPFLFTCA | 0.332 ± 0.006 | 0.225 ± 0.027 | 0.28 ± 0.0099 | 0.244 ± 0.043 | 0.3685 ± 0.00097 | 0.1949 ± 0.0015 | 0.221 ± 0.024 | 0.309 ± 0.0071
CLASCRHRTYLC | 0.483 ± 0.12 | 0.652 ± 0.026 | 0.7142 ± 0.0013 | 0.641 ± 0.023 | 0.7223 ± 0.0018 | 0.338 ± 0.015 | 0.364 ± 0.025 | 0.58 ± 0.016
CLFRVCLFILSI | 0.386 ± 0.0041 | 0.397 ± 0.019 | 0.49 ± 0.049 | 0.333 ± 0.038 | 0.489 ± 0.0053 | 0.3114 ± 0.00076 | 0.3 ± 0.028 | 0.467 ± 0.013
CLLGMKSRTILV | 0.377 ± 0.014 | 0.347 ± 0.029 | 0.33 ± 0.0047 | 0.289 ± 0.028 | 0.4262 ± 0.0024 | 0.236 ± 0.006 | 0.287 ± 0.03 | 0.397 ± 0.015
CLLSRYRVFFLG | 0.29 ± 0.056 | 0.629 ± 0.071 | 0.7205 ± 0.0048 | 0.591 ± 0.023 | 0.706 ± 0.026 | 0.134 ± 0.014 | 0.184 ± 0.026 | 0.351 ± 0.017
CLWLRCIVSILP | 0.239 ± 0.034 | 0.121 ± 0.0082 | 0.248 ± 0.0081 | 0.184 ± 0.028 | 0.321 ± 0.01 | 0.16 ± 0.0074 | 0.168 ± 0.025 | 0.30428 ± 0.00014
CPVSFSFCLKVL | 0.045 ± 0.016 | 0.348 ± 0.019 | 0.431 ± 0.03 | 0.32 ± 0.026 | 0.468 ± 0.016 | 0.0628 ± 0.019 | 0.0823 ± 0.021 | 0.115 ± 0.063
CRCLFVVKNWLS | 0.262 ± 0.017 | 0.62 ± 0.039 | 0.706 ± 0.012 | 0.623 ± 0.015 | 0.688 ± 0.04 | 0.147 ± 0.029 | 0.167 ± 0.013 | 0.293 ± 0.06
CSRTRLHCFTAS | 0.712 ± 0.011 | 0.696 ± 0.062 | 0.7452 ± 0.0029 | 0.647 ± 0.028 | 0.74183 ± 0.00066 | 0.5808 ± 0.0019 | 0.585 ± 0.027 | 0.6796 ± 0.005
CSSIFSSSDCYA | 0.7457 ± 0.0014 | 0.681 ± 0.059 | 0.7582 ± 0.0047 | 0.672 ± 0.029 | 0.7219 ± 0.0061 | 0.68 ± 0.01 | 0.68 ± 0.018 | 0.731 ± 0.011
CVFCRVAVGVDG | 0.516 ± 0.026 | 0.5389 ± 0.0011 | 0.5838 ± 0.0043 | 0.438 ± 0.03 | 0.616 ± 0.0086 | 0.428 ± 0.028 | 0.439 ± 0.0076 | 0.5899 ± 0.0034
CVFVRCVDCMSG | 0.465 ± 0.024 | 0.553 ± 0.013 | 0.544 ± 0.041 | 0.384 ± 0.031 | 0.594 ± 0.0081 | 0.354 ± 0.034 | 0.387 ± 0.015 | 0.579 ± 0.0085
CVLGWCSLIAWC | 0.284 ± 0.018 | 0.201 ± 0.044 | 0.238 ± 0.032 | 0.234 ± 0.015 | 0.231 ± 0.011 | 0.245 ± 0.025 | 0.242 ± 0.0093 | 0.1967 ± 0.0017
CWLFVWVRVISL | 0.186 ± 0.033 | 0.0995 ± 0.049 | 0.118 ± 0.01 | 0.155 ± 0.038 | 0.23174 ± 3.6e-05 | 0.103 ± 0.024 | 0.12 ± 0.033 | 0.158 ± 0.018
DCLSFVLFLFLC | 0.183 ± 0.017 | 0.203 ± 0.038 | 0.259 ± 0.015 | 0.239 ± 0.025 | 0.39151 ± 0.00036 | 0.149 ± 0.007 | 0.134 ± 0.022 | 0.149 ± 0.0066
DFCCGVILTCVC | 0.279 ± 0.01 | 0.0751 ± 0.0081 | 0.106 ± 0.011 | 0.191 ± 0.025 | 0.233 ± 0.0083 | 0.156 ± 0.012 | 0.184 ± 0.019 | 0.193 ± 0.023
DGGHLVGHDLFY | 0.727 ± 0.024 | 0.716 ± 0.023 | 0.747 ± 0.023 | 0.656 ± 0.023 | 0.758 ± 0.032 | 0.657 ± 0.016 | 0.664 ± 0.053 | 0.78 ± 0.0091
DIGCLWSKTRLC | 0.431 ± 0.12 | 0.669 ± 0.019 | 0.7585 ± 0.0073 | 0.652 ± 0.0094 | 0.763 ± 0.015 | 0.324 ± 0.022 | 0.359 ± 0.017 | 0.6042 ± 0.0039
DILQITNIKQKR | 0.572 ± 0.16 | 0.71 ± 0.041 | 0.741 ± 0.015 | 0.676 ± 0.038 | 0.731 ± 0.021 | 0.654 ± 0.014 | 0.654 ± 0.014 | 0.722 ± 0.039
FGGVFCVMARLV | – | 0.602 ± 0.14 | 0.685 ± 0.016 | 0.629 ± 0.034 | 0.689 ± 0.01 | 0.318 ± 0.0054 | 0.356 ± 0.025 | 0.506 ± 0.0059
GGGGGGRWGRLC | – | 0.634 ± 0.047 | 0.752 ± 0.031 | 0.66 ± 0.019 | 0.7572 ± 0.0018 | 0.189 ± 0.0036 | 0.232 ± 0.018 | 0.478 ± 0.0099
IRRWGRCRVRCM | – | 0.584 ± 0.029 | 0.655 ± 0.034 | 0.428 ± 0.037 | 0.616 ± 0.018 | 0.255 ± 0.0087 | 0.288 ± 0.028 | 0.52896 ± 2.4e-05

Sequence | protein stability index (Saccharomyces cerevisiae [1]) | protein stability index (Saccharomyces cerevisiae [2]; [3]) | protein stability index (Saccharomyces cerevisiae [2]; [4]) | protein stability index (Saccharomyces cerevisiae [2]; [5]) | protein stability index (Saccharomyces cerevisiae [2]; [6]) | protein stability index (Saccharomyces cerevisiae [2]; [7]) | protein stability index (Saccharomyces cerevisiae [2]; [8]) | protein stability index (Saccharomyces cerevisiae [2]; [9])
LIVFSGFLFLLS | – | 0.442 ± 0.01 | 0.53 ± 0.049 | 0.373 ± 0.031 | 0.5639 ± 0.0056 | 0.3758 ± 0.0014 | 0.364 ± 0.023 | 0.5096 ± 0.0027
PVPERTSATEPP | – | 0.61 ± 0.052 | 0.667 ± 0.029 | 0.617 ± 0.038 | 0.6671 ± 0.006 | 0.634 ± 0.0083 | 0.627 ± 0.019 | 0.655 ± 0.0013
RLLLLPGPLALQ | – | 0.634 ± 0.022 | 0.73 ± 0.034 | 0.67 ± 0.022 | 0.7 ± 0.016 | 0.685 ± 0.054 | 0.673 ± 0.021 | 0.714 ± 0.062
RRAVGLANFTIK | – | 0.705 ± 0.016 | 0.773 ± 0.035 | 0.678 ± 0.062 | 0.693 ± 0.028 | 0.639 ± 0.06 | 0.671 ± 0.019 | 0.706 ± 0.022
VLICFSVFSWVV | – | 0.0264 ± 0.00023 | 0.0313 ± 0.00079 | 0.0368 ± 0.01 | 0.0531 ± 0.0097 | 0.0228 ± 0.0066 | 0.0178 ± 0.0049 | 0.0371 ± 0.0086
VPPGCSLFAFIL | – | 0.7246 ± 0.005 | 0.75537 ± 0.00043 | 0.644 ± 0.025 | 0.7794 ± 0.005 | 0.555 ± 0.032 | 0.547 ± 0.019 | 0.73 ± 0.01
YLPYRTCSWKYE | 0.56 ± 0.022 | – | – | – | – | – | – | –
YLYSCVCGVLSN | 0.5472 ± 0.0049 | – | – | – | – | – | – | –
YNINIKKENITE | 0.68 ± 0.025 | – | – | – | – | – | – | –
YNSTVVKKGRCP | 0.7024 ± 0.0028 | – | – | – | – | – | – | –
YPPLPVRPLVLL | 0.515 ± 0.0056 | – | – | – | – | – | – | –
YPPPPPPPPPRF | 0.7367 ± 0.0056 | – | – | – | – | – | – | –
YPPRLPSILPFP | 0.696 ± 0.046 | – | – | – | – | – | – | –
YPSLPQIVLATV | 0.5033 ± 0.004 | – | – | – | – | – | – | –
YQCPASSPVLSA | 0.7191 ± 0.005 | – | – | – | – | – | – | –
YQEIIKRQTGNK | 0.745 ± 0.012 | – | – | – | – | – | – | –
YQFAALRFTFPL | 0.647 ± 0.044 | – | – | – | – | – | – | –
YRDQAGTGSWRM | 0.692 ± 0.023 | – | – | – | – | – | – | –
YRGRGSDQYAGT | 0.624 ± 0.058 | – | – | – | – | – | – | –
YRHYVKLGPKPF | 0.668 ± 0.024 | – | – | – | – | – | – | –
YRKGWRREVGGG | 0.699 ± 0.011 | – | – | – | – | – | – | –
YRLAPVSLTMSS | 0.706 ± 0.045 | – | – | – | – | – | – | –

Sequence | protein stability index (Saccharomyces cerevisiae [1]) | protein stability index (Saccharomyces cerevisiae [2]; [3]) | protein stability index (Saccharomyces cerevisiae [2]; [4]) | protein stability index (Saccharomyces cerevisiae [2]; [5]) | protein stability index (Saccharomyces cerevisiae [2]; [6]) | protein stability index (Saccharomyces cerevisiae [2]; [7]) | protein stability index (Saccharomyces cerevisiae [2]; [8]) | protein stability index (Saccharomyces cerevisiae [2]; [9])
YRLDTFCPHFSN | 0.752 ± 0.13 | – | – | – | – | – | – | –
YRLRAFLSMTQQ | 0.616 ± 0.01 | – | – | – | – | – | – | –
YRRDVGAARVLP | 0.67 ± 0.021 | – | – | – | – | – | – | –
YRTSLSMANHLL | 0.611 ± 0.069 | – | – | – | – | – | – | –
YSAPFRIPLSLR | 0.631 ± 0.034 | – | – | – | – | – | – | –
YSCDEDPVTVRG | 0.699 ± 0.036 | – | – | – | – | – | – | –
YTPSGHKRRMYV | 0.642 ± 0.064 | – | – | – | – | – | – | –
YTPSPHVRAPRH | 0.737 ± 0.025 | – | – | – | – | – | – | –
YTPVKDNDVKVY | 0.722 ± 0.077 | – | – | – | – | – | – | –
YTRAGNDKIFWE | 0.809 ± 0.0096 | – | – | – | – | – | – | –
YTRGVENTDMAP | 0.768 ± 0.022 | – | – | – | – | – | – | –
YTYPINPLDQTR | 0.7196 ± 0.0027 | – | – | – | – | – | – | –
YVCLATLSSFSF | 0.644 ± 0.048 | – | – | – | – | – | – | –
YVCRCGCLVKSV | 0.656 ± 0.043 | – | – | – | – | – | – | –
YVEVLLFTSVGF | 0.569 ± 0.07 | – | – | – | – | – | – | –
YVIAMVYGAPWS | 0.60667 ± 0.00018 | – | – | – | – | – | – | –
YVKSIRRRDYIW | 0.694 ± 0.0046 | – | – | – | – | – | – | –
YWGGWWGGWEIG | 0.689 ± 0.014 | – | – | – | – | – | – | –
YYIITRWPNTTR | 0.847 ± 0.2 | – | – | – | – | – | – | –
YYLQPTCLCFWE | 0.698 ± 0.0041 | – | – | – | – | – | – | –
